The source of these data is IntAct's records for PubMed 20150893.

B1: Class E vacuolar protein-sorting machinery protein HSE1 (Saccharomyces cerevisiae), P38753 (parent)
chain: MSSSAIKIRNALLKATDPKLRSDNWQYILDVCDLVKEDPEDNGQEVMSLIEKRLEQQDANVILRTLSLTVSLAENCGSRLRQEISSKNFTSLLYALIESHSVHITLKKAVTDVVKQLSDSFKDDPSLRAMGDLYDKIKRKAPYLVQPNVPEKHNMSTQADNSDDEELQKALKMSLFEYEKQKKLQEQEKESAEVLPQQQQQHQQQNQAPAHKIPAQTVVRRVRALYDLTTNEPDELSFRKGDVITVLEQVYRDWWKGALRGNMGIFPLNYVTPIVEPSKEEIEKEKNKEAIVFSQKTTIDQLHNSLNAASKTGNSNEVLQDPHIGDMYGSVTPLRPQVTRMLGKYAKEKEDMLSLRQVLANAERSYNQLMDRAANAHISPPVPGPALYAGMTHANNTPVMPPQRQSYQSNEYSPYPSNLPIQHPTNSANNTPQYGYDLGYSVVSQPPPGYEQ
B2: Vacuolar protein sorting-associated protein 27 (Saccharomyces cerevisiae), P40343 (parent)
chain: MSVSTPSELDALIEQATSESIPNGDLDLPIALEISDVLRSRRVNPKDSMRCIKKRILNTADNPNTQLSSWKLTNICVKNGGTPFIKEICSREFMDTMEHVILREDSNEELSELVKTILYELYVAFKNDSQLNYVAKVYDKLISRGIKFPEKLTLSNSPTAMFDSKTPADWIDSDACMICSKKFSLLNRKHHCRSCGGVFCQEHSSNSIPLPDLGIYEPVRVCDSCFEDYDLKRHDDSKKSKKHRHKRKKDRDYSTPEDEEELIRKAIELSLKESRNSASSEPIVPVVESKNEVKRQEIEEEEDPDLKAAIQESLREAEEAKLRSERQKASRQMQPQQPSPQPQPIHSVDLSDEEKDSIYMFASLVEKMKSRPLNEILEDSKLQNLAQRVFASKARLNYALNDKAQKYNTLIEMNGKISEIMNIYDRLLEQQLQSINLSQQYTLPQVPSDPYNYLTENVQNPAESYQTPPLQQLSSHQYKPQQDVSRQQSVKANSSPTTNIDHLKTIDVTPHAQQKPQSHVELAPSDPPYPKEEAEDEGTQAVQDEESSTQESRERPYPVETENGETSINKRPQGITRYDFPTVPARKFVQPESTVPLPASSSEIPIKEERPPSPQEELLIEL
B3: Signal transducing adapter molecule 1 (Homo sapiens), Q92783 (parent)
chain: MPLFATNPFDQDVEKATSEMNTAEDWGLILDICDKVGQSRTGPKDCLRSIMRRVNHKDPHVAMQALTLLGACVSNCGKIFHLEVCSRDFASEVSNVLNKGHPKVCEKLKALMVEWTDEFKNDPQLSLISAMIKNLKEQGVTFPAIGSQAAEQAKASPALVAKDPGTVANKKEEEDLAKAIELSLKEQRQQSTTLSTLYPSTSSLLTNHQHEGRKVRAIYDFEAAEDNELTFKAGEIITVLDDSDPNWWKGETHQGIGLFPSNFVTADLTAEPEMIKTEKKTVQFSDDVQVETIEPEPEPAFIDEDKMDQLLQMLQSTDPSDDQPDLPELLHLEAMCHQMGPLIDEKLEDIDRKHSELSELNVKVMEALSLYTKLMNEDPMYSMYAKLQNQPYYMQSSGVSGSQVYAGPPPSGAYLVAGNAQMSHLQSYSLPPEQLSSLSQAVVPPSANPALPSQQTQAAYPNTMVSSVQGNTYPSQAPVYSPPPAATAAAATADVTLYQNAGPNMPQVPNYNLTSSTLPQPGGSQQPPQPQQPYSQKALL

The variants in the first experiment derive from B1. As to conditions: with ubb_bovin UBB.
As to MSSSAIKIRNALLKATDPKLRSDNWQYILDVCDLVKEDPEDNGQEVMSLIEKRLEQQDANVILRTLSLTVSLAENCGSRLRQEISSKNFTSLLYALIESHSVHITLKKAVTDVVKQLSDSFKDDPSLRAMGDLYDKIKRKAPYLVQPNVPEKHNMSTQADNSDDEELQKQLKMSLFEYEKQKKLQEQEKESAEVLPQQQQQHQQQNQAPAHKIPAQTVVRRVRALYDLTTNEPDELSFRKGDVITVLEQVYRDWWKGALRGNMGIFPLNYVTPIVEPSKEEIEKEKNKEAIVFSQKTTIDQLHNSLNAASKTGNSNEVLQDPHIGDMYGSVTPLRPQVTRMLGKYAKEKEDMLSLRQVLANAERSYNQLMDRAANAHISPPVPGPALYAGMTHANNTPVMPPQRQSYQSNEYSPYPSNLPIQHPTNSANNTPQYGYDLGYSVVSQPPPGYEQ [A170Q], the “effect of a mutation on the interaction” value was “disrupting interaction”.
On the same count and under the same terms, the result for MSSSAIKIRNALLKATDPKLRSDNWQYILDVCDLVKEDPEDNGQEVMSLIEKRLEQQDANVILRTLSLTVSLAENCGSRLRQEISSKNFTSLLYALIESHSVHITLKKAVTDVVKQLSDSFKDDPSLRAMGDLYDKIKRKAPYLVQPNVPEKHNMSTQADNSDDEELQKALKMDLFEYEKQKKLQEQEKESAEVLPQQQQQHQQQNQAPAHKIPAQTVVRRVRALYDLTTNEPDELSFRKGDVITVLEQVYRDWWKGALRGNMGIFPLNYVTPIVEPSKEEIEKEKNKEAIVFSQKTTIDQLHNSLNAASKTGNSNEVLQDPHIGDMYGSVTPLRPQVTRMLGKYAKEKEDMLSLRQVLANAERSYNQLMDRAANAHISPPVPGPALYAGMTHANNTPVMPPQRQSYQSNEYSPYPSNLPIQHPTNSANNTPQYGYDLGYSVVSQPPPGYEQ [S174D] reads “disrupting interaction”.

The next experiment covers variants of B2. The conditions noted are these: with ubb_bovin UBB.
As to A266Q, the “effect of a mutation on the interaction” value was “disrupting interaction”.
On the same count and under the same terms, to S270D belongs “disrupting interaction”.

In another experiment the parent is B3. The conditions noted are these: with ubb_bovin UBB.
On to L30D, for which the “effect of a mutation on the interaction” value is reported as “disrupting interaction”.

In another experiment the parent is B3. The conditions noted are these: with ubb_bovin UBB. The source holds these as a separate data set.
As to D31Q, the “effect of a mutation on the interaction” value is given as “increasing interaction”.

In a further experiment the parent is B3. The conditions noted are these: with ubb_bovin UBB. The source holds these as a separate data set.
Regarding W26A, the “effect of a mutation on the interaction” value is reported as “disrupting interaction”.

The next experiment covers variants of B3. The conditions noted are these: with ubb_bovin UBB. This is another data set of the same source.
G27E: the “effect of a mutation on the interaction” value is listed as “decreasing interaction”.
